Experiment: soluble on expression in E. coli; label from the status in PepcDB or PDB records

Sequence | soluble on expression in E. coli
GMPTLEMPVAAVLDSTVGSSEALPDFTSDRYKDAYSRINAIVIEGEQEAHDNYIAIGTLLPDHVEELKRLAKMEMRHKKGFTACGKNLGVEADMDFAREFFAPLRDNFQTALGQGKTPTCLLIQALLIEAFAISAYHTYIPVSDPFARKITEGVVKDEYTHLNYGEAWLKANLESCREELLEANRENLPLIRRMLDQVAGDAAVLQMDKEDLIEDFLIAYQESLTEIGFNTREITRMAAAALVS | soluble
MGSDKIHHHHHHMRKLGWKELDIILVTGDAYVDHPSFGVAFIGHYLVSHGFKVGIIAQPDWRTEKDITRLGRPRLFFGVTAGNVDSMVANYTASKKKRKTDDYTPGGIGGKRPDRATIVYTNLIKRFFPEVPVVLGGLEASLRRFAHYDWWSDRVRKSVLVDSKADLLVYGMGEKAVLGIAQILSRTGDIEKCKSIRGVVWWASQKPEEGIELPSYDEISENPEKYAEALKLQTWYTDPYKNIPIYQRQDTRYVVQNPPQPPLSQEELDRLYLLPFEREVHPFYAKMGKVKAIETVKFSITAVRGCFGNCSFCALTQHQTTHVSYRSKDSILEEVRILTKKKDFKGTITDVGGPTANLYGSGCSIRETKGQCQKFCLYPIVCKVVRPNHDEFISLLESIRQIPGVRNVFVSSGIRHDFVFAEKDPDVFIRELVKYTPGQLKLAPEHAHPKVLSLMRKPPVELFLEFKKRFETLAKKMGKRKYVIGYFIVGHPGEGWRENNYLRDFILKHLGYFPQQIQIFTPTPGTVSTAMYYSGVDPFTGEKVHVERSLKVRNKMKENVLFKKKGREKR | not soluble
MFSPEQIAGKDVRLLRIKKEGSLDLALEGGVDSPVGKVVVSAVYEGGAAERHGGVVKGDEIMAINGKIVTDYTLAEAEAALQKAWNQGGDWIDLVVAVCPPKEYDDELTFF | soluble
MRILVNLILFSLIPLAFSNENSSSYLIARPLIFETQLKNINDNVNLHCTSWRFAAETNNLAPWKTIPAECADYVKDYLMGEGYVVDVERVSEEAKVYASSFESNGDGKDIWIFDIDETLLSNLPYYMEHGCGLEVFDHSKFDMWVEKGIAPAIAPSLKLYQKVIHLGYKVILLTGRRENHRVITVENLRNAGFHNWDKLILRSLDDRNKTATMYKSEKREEMVKEGYRIRGNSGDQWSDLLGSAMSERSFKLPNPMYYIP | soluble
KCETKEKGAITAKELYTMMTDKNISLIIMDARRMQDYQDSCILHSLSVPEEAISPGVTASWIEAHLPDDSKDTWKKRGNVEYVVLLDWFSSAKDLQIGTTLRSLKDALFKWESKTVLRNEPLVLEGGYENWLLCYPQYTTNAKV | soluble
MSLMKNILAIQSHVVYGHAGNSAAEFPMRRLGANVWPLNTVQFSNHTQYGKWTGCVMPPSHLTEIVQGIAAIDKLHTCDAVLSGYLGSAEQGEHILGIVRQVKAANPQAKYFCDPVMGHPEKGCIVAPGVAEFHVRHGLPASDIIAPNLVELEILCEHAVNNVEEAVLAARELIAQGPQIVLVKHLARAGYSRDRFEMLLVTADEAWHISRPLVDFGMRQPVGVGDVTSGLLLVKLLQGATLQEALEHVTAAVYEIMVTTKAMQEYELQVVAAQDRIAKPEHYFSATKLEGGSHHHHHH | soluble
MKIGLIGAGVVGRAIATLAVRAGHQVMLSNSRGPHTLFSLRAAVGCAIGTVDEAAAFGDIGVVAVPLAAYRAVPAAALAGKVVIDTNNYYPERDGAIAELDDKRTTTSELLARHLPASRIVKAFNAITMTDLDRDGRPAGSPNRRALPVAGDDAKGKAIAIALLDAFGFDALDAGPLSQGWRFERGTPAYCVALTRDALEKTLAATTRLEHHHHHH | not soluble
MSLDFAMLPPEVNSTRMYSGPGAGSLWAAAAAWDQVSAELQSAAETYRSVIASLTGWQWLGPSSVRMGAAVTPYVEWLTTTAAQARQTATQITAAATGFEQAFAMTVPPPAIMANRAQVLSLIATNFFGQNTAAIAALETQYAEMWEQDATAMYDYAATSAAARTLTPFTSPQQDTNSAGLPAQSAEVSRATANAGAADGNWLGNLLEEIGILLLPIAPELTPFFLEAGEIVNAIPFPSIVGDEFCLLDGLLAWYATIGSINNINSMGTGIIGAEKNLGILPELGSAAAAAAPPPADIAPAFLAPLTSMAKSLSDGALRGPGEVSAAMRGAGTIGQMSVPPAWKAPAVTTVRAFDATPMTTLPGGDAPAAGVPGLPGMPASGAGRAGVVPRYGVRLTVMTRPLSGEGHHHHHH | soluble
MSELDFVRRGQDLKAYRALNWEGSFADYLRLLKEDPRPLRTSFQRVHDMILAHGVEEYTRFKEKLLHYRFFDDPFEGGKDAVFGLDKPLMRLVATLKAAAHRLGPERRILLLHGPVGSAKSTIARLLKKGLEAYSRTEEGKLFTFYWKTEEGPLPCPMHEEPLHLLPQDLREAFLEELRALHPDYPYPLEVEGDLCPVCRFQMREGLRKYEGDLAALLEHEVVVKRLVLSEKDRVGIGTFQPKDEKNQDSTELTGDINYRKVALYGSDSDPRAFNFDGELNIANRGIVEFIEILKLDVAFLYDLLTASQEHKIKSKKFAQTDIDEIVLGHTNEPEYRKLQANEYMEALRDRTIKIDVPYILRVSDEVRIYQRDFAKVRGKHIAPHTLEMAATWAVLTRLEPPKRAGLTLMQKLKLYDGKLLPGWTEEAVRELMGEAKREGLEGISPRYIQDKISNVLVTSEEPCINPFMVMNELEEGLKHHSLISDERTRERYRALLQEVKAEYAEIVKNEVQRAIAADEEALNRLFHNYIDHVKAYVLGEKVKNPYTGAPEPPNERLMRSIEERIDIPESRKDDFRREIMNYIGALALEGKPFTYKDNDRLRRALELKLFDDQKDTIRLSALVSGVVDPETQAKIDVVKARLIRDYGYCEHCASGVLEFAASLFARS | soluble
AVHITLDPDTANPWLILSEDRRQVRLGDTQQSIPGNEERFDSYPMVLGAQHFHSGKHYWEVDVTGKEAWDLGVCRDSVRRKGHFLLSSKSGFWTIWLWNKQKYEAGTYPQTPLHLQVPPCQVGIFLDYEAGMVSFYNITDHGSLIYSFSECAFTGPLRPFFSPGFNDGGKNTAPLTLCPLNIGSQG | not soluble
MPVVNIPIKILGQNQSHSRSNSSSSVDNDRNQPPQQPPQPQPQQQSQQQYQQAPNVNTNMHHSNGFSPNFPSRSPIPDFPSFSSGFPNDSEWSSNFPSFPNFPSGFSNGSSNFPDFPRFGRDGGLSPNPPMQGYRRSPTPTSTQSPTSTLRRNSQQNQAPPQYSQQQPQQAQQRQTTPPSTKASSRPPSRTREPKEPEVPERPAVIPLPYEKKEKPLEKKGSRDSGKGDENLEENIAKITIGKNNCELCPEQETDGDPSPLTSPITEGKPKRGKKLQRNQSVVDFNAKTIVTLDKIELQVEQLRKKAAELEMEKEQILRSLGEISVHNCMFKLEECDREEIEAITDRLTKRTKTVQVVVETPRNEEQKKALEDATLMIDEVGEMMHSNIEKAKLCLQTYMNACSYEETAGATCQNFLKIIIQCAADDQKRIKRRLENLMSQIENAERTKADLMDDQSE | not soluble
MGSDKIHHHHHHMKKLENKKSSSIKLETVRRKTINLSETEFIKIDFLTHWETLPIVLKPNIDYLDLADWIESSQNFIETKLLKYGAILFRGFNVDTATTFERVCLALCSDLFNENGEHPRKSVSGKVYTPVSYPADKKLLWHNENSFNYSWPRKILFGCLQPAQQGGETPIVDSRIVFQLIDPKIRERFIDKKVMYIRNYGDRLGLNWETVFQTSDRLEVEAACTKAAIDFEWKTGNRLRTIAVRPAVVKHPQTKEMSWFNQAQHWHPACLDSQTRESLLSMFKQEDLPRNCYYGDGSLIEDSVLEEICGVYQQLEVSFPWKRGDLLLLDNLLTAHSRNSYMGERQLLVAMGEMANFEDV | not soluble
MQGFQPPAEKDAIEFAKKHRKEFEKVGEQFFKDNFGLKVKATNVVGKDDGIEVYVHCDDHGIVFNASLPLYKDAIHQKGSMRSNDNGDDMSMMVGTVLSGFEYRAQKEKYDNLYKFFKENEKKYQYTGFTKEAINKTQNVGYKNEYFYITYSSRSLKEYRKYYEPLIQKNDKEFKEGMERARKEVNYAADTDAVATLFSTKKNFTNDNTEDDVIELSDKLYNLKNKPDKSTITIQIGKPTINTKKAFYDDNRPIEYGVHSKGELEHHHHHH | soluble
MTPTIELICGHRSIRHFTDEPISEAQREAIINSARATSSSSFLQCSSIIRITDKALREELVTLTGGQKHVAQAAEFWVFCADFNRHLQICPDAQLGLAEQLLLGVVDTAMMAQNALIAAESLGLGGVYIGGLRNNIEAVTKLLKLPQHVLPLFGLCLGWPADNPDLKPRLPASILVHENSYQPLDKGALAQYDEQLAEYYLTRGSNNRRDTWSDHIRRTIIKESRPFILDYLHKQGWATR | soluble
MSLHEAADGILETHVTWKDIEEAMQLSFGTYATFGDNMKATNISDLKGFQSIIALIEPDWIDVEKGKDLPKKFAVKISTQLALAVLSKIMKLGGENGFSEEKLNELGKLIRDGHNREVATYKLLEKMNHPDIPYTKVYGLKGYSDANDLKGFMIMEFIPNVRSIPMYEAILADDLISLVRGIATFAALGETLSEEEKAFAGGPEYLESMFEEVFTDEQLERIY | not soluble
MAHHHHHHMEGDISSSAFVCGFTAHRAHPLSPISDIRDLCVPRTSTPSASSHALAQALSFPRRPLPHRLLASCLLITTTNRFQAHCSRSAATQPPPPLPCGTTTEREYGWDGLAVFLSADSRVFRSPFSTIVSRFSPFVAAMSDRDVPASMTRTCAPPKAHFLFCSTDARNAAPASNGDVAKLPAPKKPISAPLTPFQSPVDTHRDRHSSRHASPPRQLGRPLPPTQPSFSDVAKRMGSFNDMCEANSLLSSHVRLGEMSTLGISASTSTIPAGSSGSTTSLHWLRIAEDRVMPHPSSTKPAPAALQRNAEYVLERWVEQKVHRTAAMDDAMMKVAAAFDELYA | soluble
MVLRKLSTYRQKRDFEKTPEPSGEAAVASSKQRRFVIQKHDASRLHYDFRLEFDGVFKSWAVTKGPSLDPHDKRLAVEVEDHPLDYGDFEGTIPEGQYGGGTVMLWDRGTWEADDPERGFKKGDLKFTLHGEKLHGSWVLVRMRNDRDGGKRTNWLLIKHRDEYAREGEDILAEDKSVASGRAMAQILEHHHHHH | soluble
MGKYFGTDGVRGVANKELTPELAFKIGRFGGYVLTKDTDRPKVIIGRDTRISGHMLEGALVAGLLSTGAEVMRLGVISTPGVAYLTKALDAQAGVMISASHNPVQDNGIKFFGSDGFKLTDEQEAEIEALLDKEVDELPRPTGTNLGQVSDYFEGGQKYLQYIKQTVEEDFSGLHIALDCAHGATSSLAPYLFADLEADISTMGTSPNGMNINDGVGSTHPEVLAELVKEKGADIGLAFDGDGDRLIAVDEKGNIVDGDQIMFICAKYMKETGQLKHNTVVSTVMSNLGFYKALEANGITSDKTAVGDRYVMEEMKRGGYNLGGEQSGHIILLDYITTGDGMLSALQLVNIMKMTKKPLSELAGEMTKFPQLLVNVRVTDKKLALENEKIKEIIRVVEEEMNGDGRILVRPSGTEPLIRVMAEAPTQEVCDAYVHRIVEVVKAEVGAE | not soluble
MGHHHHHHSHVHMKDFFYFRNHFCITFELLGINLYELMKNNNFQGFSLSIVRRFTLSVLKCLQMLSVEKIIHCDLKPENIVLYQKGQASVKVIDFGSSCYEHQKVYTYIQSRFYRSPEVILGHPYDVAIDMWSLGCITAELYTGYPLFPGENEVEQLACIMEVLGLPPAGFIQTASRRQTFFDSKGFPKNITNNRG | soluble
MKKFIGSVLTTTLILGGCSAMENESNKDTNTETKSVPEEMEASKYVGQGFQPPAEKDAIEFAKKHRKEFEKVGEQFFKDNFGLKVKATNVVGKDDGVEVYVHCEDHGIVFNASLPLYKDAIHQKGSMRSNDNGDDMSMMVGTVLSGFEYRAQKEKYDNLYKFFKENEKKYQYTGFTKEAINKTQNVGYQNEYFYITYLSRNLKEYRKYYEPLIHKNDKEFKEGMQQARKELDYTANTDAVSTLFSTKKNFTKDNTVDDVIELSNKLKEKPNMPQKSQVTIQLGKSSINTKKPFYDDINPIEGLEHHHHHH | not soluble

— the DeepSol protein solubility set
